Experiments:
[1] = molecular target: Im7 L18AL19AL37AH40W (E. coli)
Im7, wild type (E. coli) = test: stopped-flow fluorescence
[2] = molecular target: Im7 L18AL19AL37AH40W (E. coli); test: stopped-flow fluorescence

stoichiometry N [1]	kobs of release of native Im7 (double mixing, chase after 6 ms) (Im7, wild type (E. coli)) [s⁻¹]	koff (Im7, wild type (E. coli)) [s⁻¹]	kon [2] [M⁻¹ s⁻¹]	fold increase in affinity (Kd) over SpyWT [2] [fold]	fold lower release rate constant (koff) than SpyWT [2] [fold]	Binder
1	141	131	1.2e+08	–	–	Spy, wild type (natural protein) ADTTTAAPADAKPMMHHKGKFGPHQDMMFKDLNLTDAQKQQIREIMKGQRDQMKRPPLEERRAMHDIIASDTFDKVKAEAQIAKMEEQRKANMLAHMETQNKIYNILTPEQKKQFNANFEKRLTERPAAKGKMPATAE
–	–	–	–	7	5	Spy H96L (natural protein) ADTTTAAPADAKPMMHHKGKFGPHQDMMFKDLNLTDAQKQQIREIMKGQRDQMKRPPLEERRAMHDIIASDTFDKVKAEAQIAKMEEQRKANMLALMETQNKIYNILTPEQKKQFNANFEKRLTERPAAKGKMPATAE
–	–	–	–	150	130	Spy Q100L (natural protein) ADTTTAAPADAKPMMHHKGKFGPHQDMMFKDLNLTDAQKQQIREIMKGQRDQMKRPPLEERRAMHDIIASDTFDKVKAEAQIAKMEEQRKANMLAHMETLNKIYNILTPEQKKQFNANFEKRLTERPAAKGKMPATAE

— publication PMC4947014
